Values belong to the substance of their own block, whether it stands above or below them.
Columns and labels:
[1] = target: UBE3A standard protein (ab206157, Abcam) (Homo sapiens (Human)) (UniProt Q05086); test: Singulex sandwich; capture GTX101092; UBE3A 1250 pg/ml
[2] = target: UBE3A standard protein (ab206157, Abcam) (Homo sapiens (Human)) (UniProt Q05086); test: Singulex sandwich; capture GTX101092; UBE3A 2500 pg/ml
[3] = target: UBE3A standard protein (ab206157, Abcam) (Homo sapiens (Human)) (UniProt Q05086); test: Singulex sandwich; capture GTX101092; UBE3A 5000 pg/ml
[4] = target: UBE3A standard protein (ab206157, Abcam) (Homo sapiens (Human)) (UniProt Q05086); test: Singulex sandwich; capture GTX101092; UBE3A 10000 pg/ml
[5] = target: UBE3A standard protein (ab206157, Abcam) (Homo sapiens (Human)) (UniProt Q05086); test: Singulex sandwich; capture GTX101092; UBE3A 312.5 pg/ml
[6] = target: UBE3A standard protein (ab206157, Abcam) (Homo sapiens (Human)) (UniProt Q05086); test: Singulex sandwich; capture GTX101092; UBE3A 9.766 pg/ml
[7] = target: UBE3A standard protein (ab206157, Abcam) (Homo sapiens (Human)) (UniProt Q05086); test: Singulex sandwich; capture GTX101092; UBE3A 156.25 pg/ml
[8] = target: UBE3A standard protein (ab206157, Abcam) (Homo sapiens (Human)) (UniProt Q05086); test: Singulex sandwich; capture GTX101092; UBE3A 19.531 pg/ml
[9] = target: UBE3A standard protein (ab206157, Abcam) (Homo sapiens (Human)) (UniProt Q05086); test: Singulex sandwich; capture GTX101092; UBE3A 39.063 pg/ml
[10] = target: UBE3A standard protein (ab206157, Abcam) (Homo sapiens (Human)) (UniProt Q05086); test: Singulex sandwich; capture GTX101092; UBE3A 78.125 pg/ml
[11] = target: UBE3A standard protein (Abcam, ab125736) (Homo sapiens (Human)) (UniProt Q05086); test: Singulex sandwich; capture GTX10488; interpolated UBE3A ND
[12] = target: UBE3A standard protein (Abcam, ab125736) (Homo sapiens (Human)) (UniProt Q05086); test: Singulex sandwich; capture GTX10488; interpolated UBE3A 3.39 pg/mL
[13] = target: UBE3A standard protein (Abcam, ab125736) (Homo sapiens (Human)) (UniProt Q05086); test: Singulex sandwich; capture GTX10488; interpolated UBE3A 78.6 pg/mL
[14] = target: UBE3A standard protein (Abcam, ab125736) (Homo sapiens (Human)) (UniProt Q05086); test: Singulex sandwich; capture GTX10488; interpolated UBE3A 10.59 pg/mL
[15] = target: UBE3A standard protein (Abcam, ab125736) (Homo sapiens (Human)) (UniProt Q05086); test: Singulex sandwich; capture GTX10488; interpolated UBE3A 31.06 pg/mL
[16] = target: UBE3A standard protein (Abcam, ab125736) (Homo sapiens (Human)) (UniProt Q05086); test: Singulex sandwich; capture GTX10488; interpolated UBE3A 256.41 pg/mL
[17] = target: UBE3A standard protein (Abcam, ab125736) (Homo sapiens (Human)) (UniProt Q05086); test: Singulex sandwich; capture GTX10488; interpolated UBE3A 661.46 pg/mL
[18] = target: UBE3A standard protein (Abcam, ab125736) (Homo sapiens (Human)) (UniProt Q05086); test: Singulex sandwich; capture GTX10488; interpolated UBE3A 2039.33 pg/mL
[19] = target: recombinant UBE3A protein (Homo sapiens (Human)) (UniProt Q05086); test: 2-step Simoa; capture GTX; UBE3A 1 ng/ml
[20] = target: recombinant UBE3A protein (Homo sapiens (Human)) (UniProt Q05086); test: 3-step Simoa; capture GTX; UBE3A 1 ng/ml
[21] = target: recombinant UBE3A protein (Homo sapiens (Human)) (UniProt Q05086); test: 2-step Simoa; capture GTX; UBE3A 10 ng/ml
[22] = target: recombinant UBE3A protein (Homo sapiens (Human)) (UniProt Q05086); test: 3-step Simoa; capture GTX; UBE3A 10 ng/ml
[23] = target: recombinant UBE3A protein (Homo sapiens (Human)) (UniProt Q05086); test: 2-step Simoa; capture GTX; UBE3A 0.1 ng/ml
[24] = target: recombinant UBE3A protein (Homo sapiens (Human)) (UniProt Q05086); test: 2-step Simoa; capture Novus; UBE3A 1 ng/ml
[25] = target: recombinant UBE3A protein (Homo sapiens (Human)) (UniProt Q05086); test: 3-step Simoa; capture GTX; UBE3A 0.1 ng/ml
[26] = target: recombinant UBE3A protein (Homo sapiens (Human)) (UniProt Q05086); test: 3-step Simoa; capture Novus; UBE3A 1 ng/ml
[27] = target: recombinant UBE3A protein (Homo sapiens (Human)) (UniProt Q05086); test: 2-step Simoa; capture Novus; UBE3A 10 ng/ml
[28] = target: recombinant UBE3A protein (Homo sapiens (Human)) (UniProt Q05086); test: 3-step Simoa; capture GTX; UBE3A 0.01 ng/ml
[29] = target: recombinant UBE3A protein (Homo sapiens (Human)) (UniProt Q05086); test: 3-step Simoa; capture Novus; UBE3A 10 ng/ml
[30] = target: recombinant UBE3A protein (Homo sapiens (Human)) (UniProt Q05086); test: 3-step Simoa; capture MS 3E5; UBE3A 1 ng/ml
[31] = target: recombinant UBE3A protein (Homo sapiens (Human)) (UniProt Q05086); test: 2-step Simoa; capture GTX; UBE3A 0.01 ng/ml
[32] = target: recombinant UBE3A protein (Homo sapiens (Human)) (UniProt Q05086); test: 2-step Simoa; capture MS 3E5; UBE3A 1 ng/ml
[33] = target: recombinant UBE3A protein (Homo sapiens (Human)) (UniProt Q05086); test: 2-step Simoa; capture Novus; UBE3A 0.1 ng/ml
[34] = target: recombinant UBE3A protein (Homo sapiens (Human)) (UniProt Q05086); test: 3-step Simoa; capture Novus; UBE3A 0.1 ng/ml
[35] = target: recombinant UBE3A protein (Homo sapiens (Human)) (UniProt Q05086); test: 3-step Simoa; capture MS 3E5; UBE3A 10 ng/ml
[36] = target: recombinant UBE3A protein (Homo sapiens (Human)) (UniProt Q05086); test: 2-step Simoa; capture MS 3E5; UBE3A 10 ng/ml
[37] = target: recombinant UBE3A protein (Homo sapiens (Human)) (UniProt Q05086); test: 2-step Simoa; capture Novus; UBE3A 0.01 ng/ml
[38] = target: recombinant UBE3A protein (Homo sapiens (Human)) (UniProt Q05086); test: 3-step Simoa; capture Novus; UBE3A 0.01 ng/ml
[39] = target: recombinant UBE3A protein (Homo sapiens (Human)) (UniProt Q05086); test: 3-step Simoa; capture MS 3E5; UBE3A 0.1 ng/ml
[40] = target: recombinant UBE3A protein (Homo sapiens (Human)) (UniProt Q05086); test: 2-step Simoa; capture MS 3E5; UBE3A 0.1 ng/ml
[41] = target: recombinant UBE3A protein (Homo sapiens (Human)) (UniProt Q05086); test: 2-step Simoa; capture MS 3E5; UBE3A 0.01 ng/ml
[42] = target: recombinant UBE3A protein (Homo sapiens (Human)) (UniProt Q05086); test: 3-step Simoa; capture MS 3E5; UBE3A 0.010 ng/ml

AvgDE [1]: 4130 DE | AvgDE [2]: 6430 DE | AvgDE [3]: 10700 DE | AvgDE [4]: 12700 DE | AvgDE [5]: 1610 DE | AvgDE [6]: 112 DE | AvgDE [7]: 922 DE | AvgDE [8]: 208 DE | AvgDE [9]: 289 DE | AvgDE [10]: 559 DE | DE S/N [11]: 1 | DE Mean [12]: 461 DE | DE S/N [12]: 1.1 | EP Mean [12]: 71800 EP | S-N [12]: 13 DE | DE Mean [13]: 1770 DE | DE S/N [13]: 4.3 | EP Mean [13]: 291000 EP | S-N [13]: 1170 DE | DE Mean [14]: 585 DE | DE S/N [14]: 1.4 | EP Mean [14]: 91300 EP | S-N [14]: 136 DE | DE Mean [15]: 925 DE | DE S/N [15]: 2.3 | EP Mean [15]: 143000 EP | S-N [15]: 470 DE | DE Mean [16]: 4910 DE | DE S/N [16]: 11.9 | EP Mean [16]: 926000 EP | S-N [16]: 4290 DE | DE Mean [17]: 9340 DE | DE S/N [17]: 22.7 | EP Mean [17]: 2.27e+06 EP | S-N [17]: 8460 DE | DE Mean [18]: 13600 DE | DE S/N [18]: 33.1 | EP Mean [18]: 5.69e+06 EP | S-N [18]: 13000 DE
Substance: anti-UBE3A antibody H00007337-M02 (AbNova)

AEB1 [19]: 0.0965 | AEB2 [19]: 0.095 | Ave AEB [19]: 0.0957 | Signal to Background [19]: 1.04 | AEB1 [20]: 0.0409 | AEB2 [20]: 0.0476 | Ave AEB [20]: 0.0443 | Signal to Background [20]: 1 | AEB1 [21]: 0.109 | AEB2 [21]: 0.109 | Ave AEB [21]: 0.109 | Signal to Background [21]: 1.19 | AEB1 [22]: 0.047 | AEB2 [22]: 0.0463 | Ave AEB [22]: 0.0466 | Signal to Background [22]: 1.05 | AEB1 [23]: 0.0906 | AEB2 [23]: 0.0965 | Ave AEB [23]: 0.0936 | Signal to Background [23]: 1.02 | AEB1 [24]: 0.048 | AEB2 [24]: 0.0444 | Ave AEB [24]: 0.0462 | Signal to Background [24]: 0.93 | AEB1 [25]: 0.0432 | AEB2 [25]: 0.0414 | Ave AEB [25]: 0.0423 | Signal to Background [25]: 0.96 | AEB1 [26]: 0.0277 | AEB2 [26]: 0.024 | Ave AEB [26]: 0.0259 | Signal to Background [26]: 1.08 | AEB1 [27]: 0.0475 | AEB2 [27]: 0.045 | Ave AEB [27]: 0.0462 | Signal to Background [27]: 0.92 | AEB1 [28]: 0.043 | AEB2 [28]: 0.0459 | Ave AEB [28]: 0.0445 | Signal to Background [28]: 1.01 | AEB1 [29]: 0.0249 | Ave AEB [29]: 0.0249 | Signal to Background [29]: 1.04 | AEB1 [30]: 0.009 | AEB2 [30]: 0.0088 | Ave AEB [30]: 0.0089 | Signal to Background [30]: 1.17 | AEB1 [31]: 0.0965 | AEB2 [31]: 0.0944 | Ave AEB [31]: 0.0955 | Signal to Background [31]: 1.04 | AEB1 [32]: 0.0234 | AEB2 [32]: 0.0226 | Ave AEB [32]: 0.023 | Signal to Background [32]: 1.39 | AEB1 [33]: 0.047 | AEB2 [33]: 0.0451 | Ave AEB [33]: 0.046 | Signal to Background [33]: 0.93 | AEB1 [34]: 0.0269 | AEB2 [34]: 0.0251 | Ave AEB [34]: 0.026 | Signal to Background [34]: 1.09 | AEB1 [35]: 0.0203 | AEB2 [35]: 0.0195 | Ave AEB [35]: 0.0199 | Signal to Background [35]: 2.62 | AEB1 [36]: 0.0582 | AEB2 [36]: 0.0565 | Ave AEB [36]: 0.0574 | Signal to Background [36]: 3.46 | AEB1 [37]: 0.0511 | AEB2 [37]: 0.0431 | Ave AEB [37]: 0.0471 | Signal to Background [37]: 0.95 | AEB1 [38]: 0.0221 | AEB2 [38]: 0.0242 | Ave AEB [38]: 0.0232 | Signal to Background [38]: 0.97 | AEB1 [39]: 0.0078 | AEB2 [39]: 0.0073 | Ave AEB [39]: 0.0075 | Signal to Background [39]: 0.99 | AEB1 [40]: 0.0191 | AEB2 [40]: 0.018 | Ave AEB [40]: 0.0186 | Signal to Background [40]: 1.12 | AEB1 [41]: 0.0177 | AEB2 [41]: 0.016 | Ave AEB [41]: 0.0168 | Signal to Background [41]: 1.01 | AEB1 [42]: 0.0052 | AEB2 [42]: 0.0068 | Ave AEB [42]: 0.006 | Signal to Background [42]: 0.792
Substance: 2F6 (WH0007337M1-100 ug, Millipore-Sigma) (antibody)
